Literature values in patent publication US20150050259A1, “NUTRACEUTICAL MODULATORS OF STEM CELL ACTIVITY” (Creative Medical Health Inc., priority 2011, published 2015).

B1: G-CSF: Granulocyte colony stimulating factor, cytokine drug used for neutropenia and mobilization of hematopoietic stem cells (protein, UniProt P09919 31-207, looked up)
Granulocyte …: TPLGPASSLPQSFLLKCLEQVRKIQGDGAALQEKLVSECATYKLCHPEELVLLGHSLGIPWAPLSSCPSQALQLAGCLSQLHSGLFLYQGLLQALEGISPELGPTLDTLQLDVADFATTIWQQMEELGMAPALQPTQGAMPAFASAFQRRAGGVLVASHLQSFLEVSYRVLRHLAQP

Tests used:
[1] = patients after intensive chemotherapy
[2] = 114 patients, 56 treated and 58 control
[3] = acute stroke patients
[4] = stroke patients
[5] = 2.5, 5, or 10 μg/kg G-CSF for 5 consecutive days
[6] = between baseline and 12-month follow-up

Molecule	abnormal growth or acromegaly after treatment [1]	recovery of platelets to 25×10(9)/l, median time ([1]; P=0.03 versus placebo) [days]	influence on infarct size, left ventricular function, or coronary restenosis [2]	increase in the leukocyte count [3, 5]	mobilization of CD34(+) cells [3, 5]	G-CSF toxicity in neuroradiological and neuropsychological follow-up [3]	increase of CD34s over normal (subcutaneous G-CSF) [fold]	safety of administration (subcutaneous G-CSF 10 μg/kg for 6 days, revascularized STEMI patients)	BI: change in the mean group score [4, 6] [%]	EMS: change in the mean group score [4, 6] [%]	ESS: change in the mean group score [4, 6] [%]	NIHSS: change in the mean group score [4, 6] [%]	adverse effects as a result of treatment [4]
GH: growth hormone, a 191-amino acid, single chain polypeptide hormone naturally produced by the anterior pituitary	no abnormal growth or acromegaly was observed	16	–	–	–	–	–	–	–	–	–	–	–
B1	–	–	no influence on infarct size, left ventricular function, or coronary restenosis	up to 75,500 /μl	Mobilization of CD34(+) cells was observed	did not disclose any specific G-CSF toxicity	20	safe	120	106	33	59	no serious adverse effects
